Experimental data taken from publication PMC10690772.

Target: ConCv5 KIKO 473T SOSIP soluble gp140 Env trimer (HIV-1 (clade C consensus))
Assay: SEC; analytical size exclusion chromatography of 10 µg of the final purified protein pool

## ConCv5 KIKO 473T SOSIP soluble gp140 Env trimer (complex)
  stoichiometry N: 3
